The experiment has as its target 硫氧还蛋白(Thioredoxin，Trx). The experiment is described as follows: indirect ELISA, Trx coated at 3 μg/ml, supernatant of transiently transfected CHO cells diluted 1000-fold, goat anti-mouse HRP. On the technique in general: ELISA stands for enzyme-linked immunosorbent assay.

Bounds are passed on as bounds.

Chain of 硫氧还蛋白(Thioredoxin，Trx) (P0AA25 2-109): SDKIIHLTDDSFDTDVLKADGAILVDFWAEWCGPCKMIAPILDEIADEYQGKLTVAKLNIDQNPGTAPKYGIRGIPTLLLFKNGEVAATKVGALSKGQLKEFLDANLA

B1: 实施例4的硫氧还蛋白的单克隆抗体(WT) (antibody, mouse IgG1, kappa, V domains shown)
VH: EVKLEESGGGLVQPGGSMKLSCAASGFTFSDGWMDWVRQSPEKGLEWVAELRNDAHNHRTYYAESLKGRFTISRDDSQSNVFLQMNSLRAEDTGIYYCTKRVPEGTGSWFAYWGQGTLVTVSA
VL: DIVMTQSPSSLGMSVGQKVTMSCKSSQSILNSINQKNYLAWYQQRPGQSPKLLVYFGSTRDSGVPDRFIGSGSGTDFTLTISSLQAEDLADYFCQQNYTTPPTFGGGTKLEIKR
The molecule B1 showed an OD (450nm, 参考630nm) of more than 1 OD.

The record behind these values is CN111718416A.
